Laboratory results from patent US20240279318A1 (NANJING LEGEND BIOTECH, published 2024).
Where a chain is given by its changes, count along the chain named. Values belong to the binder of their own block, whether it stands above or below them.

Legend:
[1] = molecular target: T1, AFP158/HLA-A*02:01 complex (human); experiment: SPR, fold vs AS170036 VL1VH1
T1 construct: flowed as analyte in SPR
Protocol: (§1) The experiment was carried out as follows. The crude scFv protein were captured onto the sensorchip. Different concentrations (320, 160, 40 nM) of AFP158/HLA-A*02:01 complex flowed over the sensorchip surface, and were allowed to bind the antibody fragment for 100 s followed by injection of the running buffer to allow dissociation of the complex. On-rate (kd) and off-rate (kd) were calculated based on association and dissociation curve, and were used to estimate the equilibrium dissociation constant (KD).

[2] = molecular target: T1, AFP158/HLA-A*02:01 complex; experiment: SPR, crude scFv captured, pMHC analyte;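 also: Peptide-MHC complex at several concentrations passed over captured scFv, association then buffer-driven dissociation, on- and off-rates fitted from the curves and KD estimated from them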
Protocol: as §1

[3] = molecular target: T2, AFP158/HLA-A*02:01 complex (human); experiment: SPR, KD ratio to AS170036 VL1VH1;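 also: crude scFv captured on a sensor chip, peptide–HLA complex passed over at several concentrations, association then buffer dissociation, KD derived from on- and off-rates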
T2 construct: flowed over the chip in SPR; also called AFP158 pro
Protocol: as §1

[4] = molecular target: T2, AFP158/HLA-A*02:01 complex; experiment: SPR, scFv captured, pMHC in flow;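 also: complex injected at several concentrations over crude scFv, association then running-buffer dissociation, KD estimated from kinetic on- and off-rate constants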
[5] = molecular target: T2, AFP158/HLA-A*02:01 complex; experiment: SPR, KD ratio to AS170036 VL1VH1; remark: listed apart in the source;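 also: crude scFv captured on a sensor chip, peptide–HLA complex passed over at several concentrations, association then buffer dissociation, KD derived from on- and off-rates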
Protocol: as §1

[6] = molecular target: T2, AFP158/HLA-A*02:01 complex; experiment: SPR, scFv captured, pMHC in flow; remark: listed apart in the source;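 also: complex injected at several concentrations over crude scFv, association then running-buffer dissociation, KD estimated from kinetic on- and off-rate constants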
Protocol: as §1

B1: AS170036 VL1VH1-VHG56F (scFv)
scFv: QSALTQPRSVSGSPGQSVTISCAGTSSDVGSENYVSWYQQHPGKAPKLMIYQVNKRASGVPDRFSGSKSGNTASLTISGLQAEDEADYYCASYRSSDHNIVFGGGTKLTVLGGGGSGGGGSGGGGSEVQLVESGGGLVQPGGSLRLSCAASGFTFSSYAMSWVRQAPGKGLEWVSTINSGTFSPYYADSVKGRFTISRDNSKNTLYLQMNSLRAEDTAVYYCAKNFFDGSWFLGPPAMDYWGQGTLVTVSSHHHHHH
Affinity increase [1]: 2.3 fold
Kd [2]: 98 nM
koff [2]: 0.022 s⁻¹
kon [2]: 230000 M⁻¹ s⁻¹

B4: LH98P (scFv)
scFv: B1 scFv with H98P, F182G
notes: AS170036 VL1VH1 scFv mutein; also called AS170036 VL1VH1-VLH98P
Affinity increase [3]: 3.5 fold
Kd [4]: 70 nM
Affinity increase [5]: 3.5 fold
Kd [6]: 70 nM

B5: LH98R (scFv)
scFv: B1 scFv with H98R, F182G
notes: AS170036 VL1VH1 scFv mutein
Affinity increase [3]: 1.1 fold
Kd [4]: 220 nM
Affinity increase [5]: 1.1 fold
Kd [6]: 220 nM

B6: LH98S (scFv)
scFv: B1 scFv with H98S, F182G
notes: AS170036 VL1VH1 scFv mutein
Affinity increase [3]: 1.4 fold
Kd [4]: 180 nM
Affinity increase [5]: 1.4 fold
Kd [6]: 180 nM

B7: LH98I (scFv)
scFv: B1 scFv with H98I, F182G
notes: AS170036 VL1VH1 scFv mutein; also called AS170036 VL1VH1-VLH98I
Affinity increase [3]: 3.1 fold
Kd [4]: 78 nM
Affinity increase [5]: 3.1 fold
Kd [6]: 78 nM

B9: LH98G (scFv)
scFv: B1 scFv with H98G, F182G
notes: AS170036 VL1VH1 scFv mutein
Affinity increase [3]: 0.9 fold
Kd [4]: 280 nM
Affinity increase [5]: 0.9 fold
Kd [6]: 280 nM

B10: LH98A (scFv)
scFv: B1 scFv with H98A, F182G
notes: AS170036 VL1VH1 scFv mutein; also called AS170036 VL1VH1-VLH98A
Affinity increase [3]: 2.3 fold
Kd [4]: 110 nM
Affinity increase [5]: 2.3 fold
Kd [6]: 110 nM

B17: LH98F (scFv)
scFv: B1 scFv with H98F, F182G
notes: AS170036 VL1VH1 scFv mutein; also called AS170036 VL1VH1-VLH98F
Affinity increase [3]: 3.3 fold
Kd [4]: 74 nM
Affinity increase [5]: 3.3 fold
Kd [6]: 74 nM

B18: AS170036 VL1VH1-VHG56N (scFv)
scFv: B1 scFv with F182N
Affinity increase [1]: 2.5 fold
Kd [2]: 92 nM
koff [2]: 0.025 s⁻¹
kon [2]: 270000 M⁻¹ s⁻¹

B20: LH98N (scFv)
scFv: B1 scFv with H98N, F182G
notes: AS170036 VL1VH1 scFv mutein
Affinity increase [3]: 1.5 fold
Kd [4]: 160 nM
Affinity increase [5]: 1.5 fold
Kd [6]: 160 nM

B23: LH98Q (scFv)
scFv: B1 scFv with H98Q, F182G
notes: AS170036 VL1VH1 scFv mutein; also called AS170036 VL1VH1-VLH98Q
Affinity increase [3]: 3.3 fold
Kd [4]: 75 nM
Affinity increase [5]: 3.3 fold
Kd [6]: 75 nM

B25: AS170036 VL1VH1-VHG56Y (scFv)
scFv: B1 scFv with F182Y
Affinity increase [1]: 6.6 fold
Kd [2]: 35 nM
koff [2]: 0.006 s⁻¹
kon [2]: 170000 M⁻¹ s⁻¹

B26: LE32Y (scFv)
scFv: B1 scFv with E32Y, F182G
notes: AS170036 VL1VH1 scFv mutein
Affinity increase [3]: 0.6 fold
Kd [4]: 430 nM
Affinity increase [5]: 0.6 fold
Kd [6]: 430 nM

B27: LH98M (scFv)
scFv: B1 scFv with H98M, F182G
notes: AS170036 VL1VH1 scFv mutein
Affinity increase [3]: 1.8 fold
Kd [4]: 140 nM
Affinity increase [5]: 1.8 fold
Kd [6]: 140 nM

B28: LH98L (scFv)
scFv: B1 scFv with H98L, F182G
notes: AS170036 VL1VH1 scFv mutein
Affinity increase [3]: 1.2 fold
Kd [4]: 200 nM
Affinity increase [5]: 1.2 fold
Kd [6]: 200 nM

B29: LE32W (scFv)
scFv: B1 scFv with E32W, F182G
notes: AS170036 VL1VH1 scFv mutein; also called AS170036 VL1VH1-VLE32W
Affinity increase [3]: 2.4 fold
Kd [4]: 100 nM
Affinity increase [5]: 2.4 fold
Kd [6]: 100 nM

The remaining lines, values ahead:

Affinity increase [3]: 0.6 fold
Kd [4]: 410 nM
Affinity increase [5]: 0.6 fold
Kd [6]: 410 nM
B2: LY34W (scFv)
scFv: B1 scFv with Y34W, F182G
notes: AS170036 VL1VH1 scFv mutein

Affinity increase [3]: 1.3 fold
Kd [4]: 180 nM
Affinity increase [5]: 1.3 fold
Kd [6]: 180 nM
B3: LY93L (scFv)
scFv: B1 scFv with Y93L, F182G
notes: AS170036 VL1VH1 scFv mutein

Affinity increase [3]: 1 fold
Kd [4]: 240 nM
Affinity increase [5]: 1 fold
Kd [6]: 240 nM
B8: LY93W (scFv)
scFv: B1 scFv with Y93W, F182G
notes: AS170036 VL1VH1 scFv mutein

Affinity increase [3]: 0.5 fold
Kd [4]: 450 nM
Affinity increase [5]: 0.5 fold
Kd [6]: 450 nM
B11: LY93V (scFv)
scFv: B1 scFv with Y93V, F182G
notes: AS170036 VL1VH1 scFv mutein

Affinity increase [3]: 2.9 fold
Kd [4]: 84 nM
Affinity increase [5]: 2.9 fold
Kd [6]: 84 nM
B12: LH98T (scFv)
scFv: B1 scFv with H98T, F182G
notes: AS170036 VL1VH1 scFv mutein; also called AS170036 VL1VH1-VLH98T

Affinity increase [3]: 0.6 fold
Kd [4]: 380 nM
Affinity increase [5]: 0.6 fold
Kd [6]: 380 nM
B13: LY93Q (scFv)
scFv: B1 scFv with Y93Q, F182G
notes: AS170036 VL1VH1 scFv mutein

Affinity increase [3]: 1.6 fold
Kd [4]: 160 nM
Affinity increase [5]: 1.6 fold
Kd [6]: 160 nM
B14: LH98Y (scFv)
scFv: B1 scFv with H98Y, F182G
notes: AS170036 VL1VH1 scFv mutein

Affinity increase [3]: 0.5 fold
Kd [4]: 540 nM
Affinity increase [5]: 0.5 fold
Kd [6]: 540 nM
B15: LY34H (scFv)
scFv: B1 scFv with Y34H, F182G
notes: AS170036 VL1VH1 scFv mutein

Affinity increase [3]: 0.6 fold
Kd [4]: 440 nM
Affinity increase [5]: 0.6 fold
Kd [6]: 440 nM
B16: LY93I (scFv)
scFv: B1 scFv with Y93I, F182G
notes: AS170036 VL1VH1 scFv mutein

Affinity increase [3]: 1.1 fold
Kd [4]: 230 nM
Affinity increase [5]: 1.1 fold
Kd [6]: 230 nM
B19: LY93M (scFv)
scFv: B1 scFv with Y93M, F182G
notes: AS170036 VL1VH1 scFv mutein

Affinity increase [3]: 1.2 fold
Kd [4]: 200 nM
Affinity increase [5]: 1.2 fold
Kd [6]: 200 nM
B21: LH98W (scFv)
scFv: B1 scFv with H98W, F182G
notes: AS170036 VL1VH1 scFv mutein

Affinity increase [3]: 1.8 fold
Kd [4]: 140 nM
Affinity increase [5]: 1.8 fold
Kd [6]: 140 nM
B22: LY93F (scFv)
scFv: B1 scFv with Y93F, F182G
notes: AS170036 VL1VH1 scFv mutein

Affinity increase [3]: 3.2 fold
Kd [4]: 78 nM
Affinity increase [5]: 3.2 fold
Kd [6]: 78 nM
B24: LH98V (scFv)
scFv: B1 scFv with H98V, F182G
notes: AS170036 VL1VH1 scFv mutein; also called AS170036 VL1VH1-VLH98V
